Results: patent publication US7611711B2, “VEGFR-3 inhibitor materials and methods” (Vegenics Limited, priority 2001, dated 2009)
Ends that are not written are not given here. GST = glutathione-S-transferase

Molecular target: T1, VEGFR-3/EpoR chimera expressed on BaF3 cells (UniProt P14753+P35916)
T1 construct: expressed in transfected cells; host or cells: BaF3 (IL-3 dependent murine pro-B cells)
T1 sequence (P35916+P14753 with tags, fused parts or gaps): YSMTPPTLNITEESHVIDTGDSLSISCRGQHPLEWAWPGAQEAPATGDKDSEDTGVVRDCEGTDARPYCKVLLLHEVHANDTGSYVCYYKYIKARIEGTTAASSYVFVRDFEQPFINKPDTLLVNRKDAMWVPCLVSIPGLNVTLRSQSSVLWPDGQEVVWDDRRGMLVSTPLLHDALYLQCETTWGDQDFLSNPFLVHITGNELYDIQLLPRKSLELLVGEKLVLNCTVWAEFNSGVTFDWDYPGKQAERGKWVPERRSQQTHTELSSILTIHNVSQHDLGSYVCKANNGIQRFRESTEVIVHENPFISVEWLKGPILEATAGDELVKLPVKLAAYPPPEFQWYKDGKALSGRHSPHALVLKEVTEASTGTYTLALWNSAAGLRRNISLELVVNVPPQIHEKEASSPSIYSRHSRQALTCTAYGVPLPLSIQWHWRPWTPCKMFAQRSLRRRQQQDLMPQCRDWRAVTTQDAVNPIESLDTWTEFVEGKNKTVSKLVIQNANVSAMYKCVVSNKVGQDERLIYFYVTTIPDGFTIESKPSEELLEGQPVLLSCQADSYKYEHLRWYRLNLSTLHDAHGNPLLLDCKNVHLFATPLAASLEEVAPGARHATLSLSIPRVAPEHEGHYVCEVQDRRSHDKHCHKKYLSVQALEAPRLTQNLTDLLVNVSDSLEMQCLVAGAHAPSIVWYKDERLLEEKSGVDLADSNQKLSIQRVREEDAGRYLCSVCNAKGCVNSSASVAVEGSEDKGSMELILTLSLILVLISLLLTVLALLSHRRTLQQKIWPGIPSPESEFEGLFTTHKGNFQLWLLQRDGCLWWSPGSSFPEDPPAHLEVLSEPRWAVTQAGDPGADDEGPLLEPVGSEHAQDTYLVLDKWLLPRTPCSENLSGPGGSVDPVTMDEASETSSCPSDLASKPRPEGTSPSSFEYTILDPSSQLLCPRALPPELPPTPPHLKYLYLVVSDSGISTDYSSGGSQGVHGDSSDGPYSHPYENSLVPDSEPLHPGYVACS
Test: Bioassay for VEGFR-3 stimulation: viability (MTT) of BaF3 cells expressing a VEGFR-3/EpoR chimera, supplied with VEGF-C
Assay type: cell-based
Experimental: For the viability assay, the IL-3 dependent BaF3 cells expressing a VEGFR-3/EpoR chimera (Aschen et al, Eur J Biochem. 267(9):2505-15, 2000) were seeded in 96 well microtiter plates at 15000 cells/well in triplicates in the absence of IL-3 but supplied with the lOOng/ml VEGF-C and a range of concentrations of the selected peptides fused with GST. Cells were cultured for 48 h, during which time the cells incubated in cell culture medium alone had died. The viability of the cells was determined by the MTT reagent, which was added at a concentration of 0.5 mg/ml. After 2 h an equal volume of cell lysis solution was added (10%SDS/10 mM HCl) and allowed to incubate overnight at 37° C. The absorbance was measured at 540 nm.
The effects of the peptides fused to GST on the growth of BaF3-R3/EpoR were assessed using the MTT assay as described above and are depicted in FIG. 1. In this experiment, GST- CGYWLTIWGC (SEQ ID NO: 35) fusion protein was used for the inhibition of VEGF-C binding to VEGFR-3 expressed on BaF3 cells. In this experiment, a 20 uM concentration of the fusion protein sufficed to inhibit the binding completely as measured by the MTT cell death assay.

Substance	concentration that sufficed to inhibit VEGF-C binding to VEGFR-3 completely, as measured by the MTT cell death assay (GST fusion protein, BaF3-R3/EpoR cells, no IL-3, VEGF-C supplied, 48 h) [µM]	concentration sufficient to completely inhibit VEGF-C/D binding to VEGFR-3 expressed on BaF3 cells (GST fusion protein, BaF3 cells) [µM]	competition with VEGF-C binding to VEGFR-3 expressed on BaF3 cells (in words) (BaF3 cells expressing VEGFR-3)
GST-CGYWLTIWGC: fusion protein of glutathione-S-transferase (GST) with peptide CGYWLTIWGC, produced in E. coli from pGEX-2T ({GST}-CGYWLTIWGC; cysteine pairing not given here; also: GST fusion, dimerising)	20	20	–
CGYWLTIWGC (isolated peptide)	–	–	competes with VEGF-C binding to VEGFR-3
